Laboratory results: patent US20030073824A1, “DNA encoding methymycin and pikromycin” (priority 1999, published 2003)

Key:
[1] = target: A. eutrophus PHA synthase (Cupriavidus necator, UniProt P23608); conditions: read-out: apparent Km (substrate concentration at half-optimal velocity); enzyme 0.95 mg/ml; 40 or 200 μl assay volumes; FIG. 10
[2] = target: the molecule itself; assay: size exclusion chromatography of native protein (forms of about 100-160 kDa and 50-80 kDa)
[3] = Storage stability of PHA synthase purified from insect cells; type: physicochemical
Procedure: Fraction collection tubes were prepared by addition of […] of 100 mM EDTA to provide a metalloprotease inhibitor at 1 mM immediately after HA chromatography. PHA synthase was eluted in a broad peak between 110-180 mM KPi. Fractions (3 ml) containing significant PHA synthase activity were pooled and stored at 0° C. until the entire soluble fraction had been run through the chromatographic process. Pooled fractions then were concentrated at 4° C. by use of a Centriprep-30 concentrator (Amicon) to 3.8 mg/ml. Aliquots (0.5 ml) were either flash frozen and stored in liquid N2 or glycerol was added to a final concentration of 50% and samples (1.9 mg/ml) were stored at −20° C.
PHA synthase purified from insect cells appears to be relatively stable.

Molecule | Km [1] [µM] | binding result [2] | synthase activity remained ([3]; after 7 weeks stored at −20° C. in the presence of 50% glycerol) | synthase activity remained ([3]; after 7 weeks stored in liquid N2)
3-hydroxybutyrate CoA [HBCoA] | 2500 | – | – | –
A. eutrophus PHA synthase (phbC gene product) produced in insect cells with a baculovirus vector (enzyme, Alcaligenes eutrophus, UniProt P23608 7-589, looked up, Denatured on SDS-PAGE for the Western blots; Size exclusion chromatography used the native purified protein; also called PHB synthase; 64 kDa protein) AAASTQEGKSQPFKVTPGPFDPATWLEWSRQWQGTEGNGHAAASGIPGLDALAGVKIAPAQLGDIQQRYMKDFSALWQAMAEGKAEATGPLHDRRFAGDAWRTNLPYRFAAAFYLLNARALTELADAVEADAKTRQRIRFAISQWVDAMSPANFLATNPEAQRLLIESGGESLRAGVRNMMEDLTRGKISQTDESAFEVGRNVAVTEGAVVFENEYFQLLQYKPLTDKVHARPLLMVPPCINKYYILDLQPESSLVRHVVEQGHTVFLVSWRNPDASMAGSTWDDYIEHAAIRAIEVARDISGQDKINVLGFCVGGTIVSTALAVLAARGEHPAASVTLLTTLLDFADTGILDVFVDEGHVQLREATLGGGAGAPCALLRGLELANTFSFLRPNDLVWNYVVDNYLKGNTPVPFDLLFWNGDATNLPGPWYCWYLRHTYLQNELKVPGKLTVCGVPVDLASIDVPTYIYGSREDHIVPWTAAYASTALLANKLRFVLGASGHIAGVINPPAKNKRSHWTNDALPESPQQWLAGAIEHHGSWWPDWTAWLAGQAGAKRAAPANYGNARYRAIEPAPGRYVKAKA | – | binds | approximately 75% | approximately 50%
